Results from paper PMC7238435.

Biological target: recombinant human cartilage oligomeric matrix protein (COMP) (human) (UniProt P49747)
Experiment: atomic force microscopy

Sequence of recombinant human cartilage oligomeric matrix protein (COMP), P49747 21-757 (natural protein; other documents disagree on this pair) (P49747 21-757): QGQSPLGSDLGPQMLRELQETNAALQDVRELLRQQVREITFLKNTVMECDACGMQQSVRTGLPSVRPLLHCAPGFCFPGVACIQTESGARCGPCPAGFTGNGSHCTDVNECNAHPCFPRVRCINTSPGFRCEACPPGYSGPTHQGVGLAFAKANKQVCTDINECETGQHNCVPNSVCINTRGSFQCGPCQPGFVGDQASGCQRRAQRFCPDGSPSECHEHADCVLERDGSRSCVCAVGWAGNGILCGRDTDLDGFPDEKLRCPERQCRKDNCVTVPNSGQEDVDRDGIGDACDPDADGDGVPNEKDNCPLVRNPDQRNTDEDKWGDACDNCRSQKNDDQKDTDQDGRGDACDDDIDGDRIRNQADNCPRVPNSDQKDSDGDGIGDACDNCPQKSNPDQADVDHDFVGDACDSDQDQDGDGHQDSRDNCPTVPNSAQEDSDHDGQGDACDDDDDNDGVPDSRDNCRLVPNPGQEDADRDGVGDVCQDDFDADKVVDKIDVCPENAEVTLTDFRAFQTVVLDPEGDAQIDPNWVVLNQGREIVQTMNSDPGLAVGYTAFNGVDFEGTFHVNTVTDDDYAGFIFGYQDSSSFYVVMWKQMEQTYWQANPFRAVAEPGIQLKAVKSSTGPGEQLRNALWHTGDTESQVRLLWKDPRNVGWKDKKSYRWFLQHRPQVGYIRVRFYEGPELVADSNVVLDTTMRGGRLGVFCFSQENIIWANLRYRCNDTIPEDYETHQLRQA

stoichiometry N: 5
Substance: recombinant human cartilage oligomeric matrix protein (COMP), P49747 21-757 (natural protein; other documents disagree on this pair)
